Assay results as given in patent publication US20260098089A1.

Assays:
[1] = molecular target: Human CD7 protein (soluble) (human) (UniProt P09564); experiment: SPR, captured mAb, global fit 1:1 model
[2] = molecular target: Cynomolgus monkey (Macaca fascicularis) CD7 protein (soluble) (cynomolgus monkey (Macaca fascicularis)); experiment: SPR, captured mAb, global fit 1:1 model
[3] = molecular target: Human CD7 on cells (CEM and other T-ALL cells, peripheral NK and T cells) (human) (UniProt P09564); experiment: cell-based or functional assay
Human CD7 on cells (CEM and other T-ALL cells, peripheral NK and T cells) (human), sequence (P09564 26-238 limits assumed): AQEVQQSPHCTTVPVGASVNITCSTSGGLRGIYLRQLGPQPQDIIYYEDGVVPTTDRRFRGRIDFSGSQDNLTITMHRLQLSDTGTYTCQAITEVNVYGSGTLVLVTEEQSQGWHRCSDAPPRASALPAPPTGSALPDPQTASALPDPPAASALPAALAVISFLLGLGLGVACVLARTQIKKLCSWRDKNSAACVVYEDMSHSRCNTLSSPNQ

Human CD7 protein (soluble) (human), sequence (P09564 26-180 limits assumed): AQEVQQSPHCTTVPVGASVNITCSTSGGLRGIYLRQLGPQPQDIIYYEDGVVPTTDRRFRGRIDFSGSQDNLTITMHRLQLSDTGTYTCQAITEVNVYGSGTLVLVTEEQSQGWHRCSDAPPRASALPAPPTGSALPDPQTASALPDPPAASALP
Cynomolgus monkey (Macaca fascicularis) CD7 protein (soluble) (cynomolgus monkey (Macaca fascicularis)), sequence (chain, as listed by the source limits assumed): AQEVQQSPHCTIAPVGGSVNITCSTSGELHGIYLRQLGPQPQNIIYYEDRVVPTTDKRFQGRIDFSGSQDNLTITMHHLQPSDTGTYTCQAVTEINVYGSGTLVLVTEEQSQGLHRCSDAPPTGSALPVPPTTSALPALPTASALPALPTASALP

Kd [1] [nM]	koff [1] [s⁻¹]	kon [1] [M⁻¹ s⁻¹]	Kd [2] [nM]	koff [2] [s⁻¹]	kon [2] [M⁻¹ s⁻¹]	EC50, CDC assay on CEM cells [3] [nM]	CDC assay on CEM cells, EC50 (FIG. 1) [3] [nM]	Substance	Maximum killing, CDC assay on CEM cells [3] [%]	CDC assay on CEM cells, maximum killing (FIG. 1) [3] [%]
0.279	0.000125	451000	–	–	–	–	–	TH69 (antibody)	–	–
6.22	0.0037	611000	50.8	0.0254	529000	–	–	RFT2 IgG1 (antibody)	–	–
–	–	–	–	–	–	0.21	–	TH69 E345R (antibody)	87.1	–
–	–	–	–	–	–	0.22	< 1	RFT2 IgG1 E345R (antibody)	98.5	100
